# Experimental data taken from the nanobody polyreactivity screen of Harvey et al. (2022).
# Test: yeast display, Sf9 membrane polyspecificity reagent, FACS + sequencing; frameworks hold sequencing errors
# In short: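 Genes from sorted yeast were amplified by colony PCR, read by MiSeq 2 × 250 sequencing and filtered on CDR length. These cells carried a synthetic nanobody library in Saccharomyces cerevisiae BJ5465 and were sorted by FACS into low and high (top ~1%) gates on anti-HA and streptavidin fluorescence. Polyreactivity is labelled according to the gate of origin.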
row,Sequence,polyreactivity (PSR sort gate)
1,QVQLVESGGGLLQAGGSLRISCAASGIIFRLYDMAWYRQAPGKERELVAAISSGGSTYYADSVKGRFTISRDNAKNTVYLQMNSLKPVDTAVYYCNARVRYKRTGRYGYWGQVTQVTVSS,high polyreactivity
2,QVQLVESGGGLVQAGGSLRLSCAASGFIFRPYAMGWYRQAPGKERELVAAISFSGGSTYYADSVKGRFTISRDNAKNTVYLQMNSLIPEDTAVYYCAAVYYFSYWLGPDDYWGQGTQVTVSS,low polyreactivity
3,QVQLEESGGGLDQAGGSLRLSCAASARTFDGYAMGWYRQAPGKERELVAAISSGDSTYYADSVKGRFTISRDKAKNTVYLQMNSLKPEDTAVYYCAASFYYSSYGYWGQGTQVTVSS,low polyreactivity
4,QVQLVESGGGLVQAGGSLRLSCAASGSIFDDYAMGWYRQAPGKEREKVAAISWSGGRTYYADSVKGRFTISRDTAKNTVYLQMNSLKPEDTAVYYCAATTGVRSRRYYYWGQGTQVTVSS,high polyreactivity
5,QVQLVDSWGGLVQAGGSLRLSCAASGFIFPYNTMGWYRQAPGKERELVAAISSGGSTYYADSVKGRFTISRDNAKNTVYLQMNSLKPEDTAVYYCAVRGRRSPYGYWGQGTQVTVSS,high polyreactivity
6,QVQLVESGGGLVQAGGSLRLSCAASGFIFSYYAMGWYRQAPGTERELVAVITFSVGSPYYADSVKGRFTISRDNAQNTVYLLMNSLKPEDTAVYYCAARSYACAKRAYYYWGQGTQVTVSS,high polyreactivity
7,QVQLVESGGGFVQAGGSLRLSCAASGSIFYLYAMGWYRQAPGKERELVAAITSIGGSTYADSVKGRFTISRDNAKYTVYLQMNSLKPEDTAVYYCATYVAYHRGYRTYDQWGQGTQVTVSS,low polyreactivity
8,QVQLVESGGGLVQAGGSLRLSCAASGYIFDVYAMGWYRQAPGKERELVATISSGTGITKYADSVKGRFTISRDNAKNTVYLQMNSLKPEDTAVYYCAADYASLSWLGFYYWGQGTQVTVSS,low polyreactivity
9,QVQLVESGGGLVQAGGSLRLSCAASGGTFPGYTMGWYRQAPGKERELVAAISRGGRTYYADSVKGRFTISRDNAKNTVYLQMNSLKPEDTAVYYCNAVTKYGNFDYWGQGTQVTVSS,high polyreactivity
10,QVQLQESGGGLVQAGGSPRLSCAASDNIFPDSVMCWYRQAPGKERELVATIGFGATTNYADSVKGRFTISRDNAKNTVYLQMNSLKPEDTAVYYCAADPLIYEYFCYWGQGSQVTVSS,low polyreactivity
11,QVQLVESGGGLVQAGGSLRLSCAASGSNFRGNAMAWYRQAPGKERELVAAITYNDGGTYYADSVKGRFTISRDNAMNTVYLQMNLLKPEDTAVYYCAAVGTGNKSILYDYWGQGTQVTVSS,low polyreactivity
12,QVQLVESGGGLVQAGGSLRLSCAASGSTFTLYAMGWYRQAPGKERELVATITGSGGSTNYADSVKGRFTISRDNAKNTVYLQMNSLKPEDTAVYYCAADYAVYSFTEFNYWGHGTQVTVSS,high polyreactivity
13,QVQLVESRGGLVQAGGSLRLSCDASGIIFVKYAMGWYRQAPGKERELVAAITSGGSTYYADSVKVRFTISRDNAKNTVYLQMNSLKPEDTAVYYCNADSWFLYYFTINGYWGQGTQVTVSS,high polyreactivity
14,QVQLVESGGGLVQAGGSLRLSCAASGFTFSYYAMGWYRQAPGKERELVAAISWSGGRTYYADSVKGRFTISRDNAKNTVYLQMNSLKPEDTAVYYCAVVYYGSIFVLEYDYWGQGTQVTVSS,high polyreactivity
15,QVQRVESGGGLVQAGGSLRLSSAASGPIYGDYAMGWYRQEPGKERELVADITWSGGSTYYADSVKGRFTISRDNAKNTVYLQMNSLKPEDTAVYYCNADVWFYYTFDYWGLGTQVTVSS,low polyreactivity
16,QVQLVESGGGLVQAGGSLRLSCAASGFIIAFDNAMGWYRQAPGKERELVAAISSGTTTHYADSVKGRFTISRDNAKNTVYLQMNSLKPEDTAVYYCAADSVKQVRYGNVGHDYWGQGTQVTVSS,low polyreactivity
17,QVQLVESGGGLVQAGGSLRLSCAASRFYTMGWYRQAPGKERELVAAISWSGGDTYYADSVKGRFTISRDNAKNTVYLQMNSLKPEDTAVYYCAKKTIGSYVHEPYYYWGQGTQVTVSS,low polyreactivity
18,QVQLVESGGGLVQAGGSLRLSCAASGRTSWRYAMGWYRQAPGKERELVAANNRGGSTYYADSVKGRFTISRDNAKNTVYLQMNSLKPEDTAVYYCAVDTPLEYYHQQAYVAGEYWGQGTQVTVSS,low polyreactivity
19,QVQLVETGGGIVQAGGSLRLSSAASGRIFASNAMGWYRQAPGKERELVAAIDQCGGSTYYADSVKGRFTISRDNAKNTVYLQMNSLKPEDTAVYYCAADYITAYPRLYNYWGQGTQVTVSS,low polyreactivity
20,QVQLVESGGGLVQAGGSLRLSCAPSGSIFWLYDMGWYRPAPGKERELVAAIDSGDSTKYADSVKGRFTISRDNAKNTVYLQMNSLKPEDTAVYYCNASRRYHVRAPYDYWGQGTQVTVSS,low polyreactivity
21,QVQLVESGGGLVQAGGSLRLSCAASGSTFTTNAMGWYIQAPGKERELVATISGGSTNYADSVKGRFTISRDNAKNTVYLQMNSLKPEDTAVYYCNTDGEVTYDYWGQGTQVTVSS,low polyreactivity

row,Sequence,polyreactivity (PSR sort gate)
1,QVQLVETGGGLVQAGGSLRLSCAASGSIFTYYTMGWYRQAPGKERELVAAINGRGHSTYYADSVKGRFTISRDNAKNTVYLHMNSLKPEDTAVYYCARRRQYEYNYWGQGTQVTVSS,high polyreactivity
2,QVQLVESGGGLVQAGGSLRLSCAASGSIFRYYAMGWYRQAPGKEREFVAAISASGGSTYYADSVKGRFTISRDNAKNTVYLQMNSLKPEDTAVYYCAARYSYRRPGGYPFGSWGQGTQVTVSS,high polyreactivity
3,QVQLVESGGGLVQAGGSLRLSCAASGGIFSSYAMGWYRPAPGKERELVAAISSSSGSTYYADSVKGRFTISRDNAKNTVYLQMNSLKPEDTGVYYCAADSGHPDWYYYCGQGTQVTVSS,high polyreactivity
4,QVQLVESGGGLVQAGGSLRLSCAASGSTFAYNAMGWYRQAPGKERELVAAITRSGGSTYYADSVKGRFTISRDNAKNTVYLQKNSLKPEDTAVYYCNKASGGYYVTSLYAYRYYYWGQGTQVTVSS,high polyreactivity
5,QVQLVESGGGLVQAGGSLRLSCAASGFIFVHNAMGWYRQAPGKERELVAAITSRGRTYYADSVKGRFTISRDNAKNTVYLQMNSLKPEDTAVYYCNAYWRGEYRYDSWGQGTQVTVSS,high polyreactivity
6,QFQLVESGGGLVQAGGSLRLSCAASGSIFTYNVMGWYRQAPRKERELVAAISDGDGSTYADSVKGRFTISRDNAKNTVYLQMNSLKPEDTAVYYCAAVDGRYLGGFNSRDGDWGQGTQVTVSS,low polyreactivity
7,QVQLVESGRGLVQAQGSLRLSCAASGRIFNYNAMGWYRQAPGNERELVAVISRRGGSTYYADSVKGRFTISRDYAKNTVYLQMNSLKPEDTAVYYCGADLPSYPYEYWGLGTQVTVSS,low polyreactivity
8,QVQLVESGGGLVQAGGSLRLSCAASGRIFNQYGMGWYRQAPGQEMELVAAIRSGDSTNYADSVKGRFTISRDNAKNTVYLQMNSLKPEVTAVYYCARDRPGDYAGYDYWGQGTEVTVSS,low polyreactivity
9,QVQLVESGGGLLQAAGSLSLSCAASGSIFKYYAMGWYRQAPGKERELVAAISASGGSTSYADSVKGRFTISRDNAKNTVYLQMNSLKPEDTAVYYCAADGVSYAYRYDYWGQGTQVTVSS,low polyreactivity
10,KVQLVESGGGLVQAGGRLRLSCAPSGSIFGTNTMGWYRQAPGTERELVAAIRLSDSSTYYADSVKGRFTISRDNAKNTVYLQMKSLKPEDTAVYDCAVDYRAYHYYRYDYWGQGTQVTVSS,low polyreactivity
11,QVQLVESGGGLLQAGGSLRLSCAASGRTFYQYAMGWYRKAPGKDRELVAAITTSGRSTYYADSVKGRITISRDNAKNTVYLQMNRLKPEDTAVYYCNKDLSSTIFDYWGQGTQVTVSS,low polyreactivity
12,QVQLVESGGGLVQAGGSLRISCASSGSIFVINAMGWYRQAPGKERELVAAIDWGGDTTYYADSVKGRFTISRDNAKITVYLQMNSLKPEDTAVYYCAADLFLWYEFEYWGQGTQVTVSS,high polyreactivity
13,QVQLVETGGGLVQAGGSLRLSCAASGSTFESNTMGWYRQAPGKERELVAAISYSGGRTYYADSVKGRFTISRDNAKNTVYLQMNSLKPEDTAVYYCAARWSVSYQYWGQGSQVTVSS,high polyreactivity
14,QVQLVESGGGLVQAGGSLRLSCAASASIYPYAMGWYRQAPGKERELVAAITRSGASTYYADSVKGRFTISRDNAKNTVYLQMNSMKPEDTAVYYCAAYALRGVRYPYRVDFYYWGQGTQVTVSS,high polyreactivity
15,QVQLVESGGGLVQAGGSLRLSCAASGFTFTAYAMGWYRQAPGKERELVAAISSGGSTYYADSVKGRFTISRDNAKNTVYLQMNSLKPEDTAVYYCAAVGVYTVKREYWGQGTQLTVSS,low polyreactivity
16,QVQLVESGGGLVQAGGSLRLSCAASGNTLVKNAMGWYRQAPGNERELVAAISSSGGRTYYADSVKGRFTISRDNAKNTVYLQMNSLKPEDTAVYYCAARYPSGYYYWGQGTQVTVSS,high polyreactivity
17,QVQLVESGGGLVQAGGTLRLSCAASGFTFYSNTMGWYRQAPGKERELFAAITRTGVSTYYADSVKGRFTISRDNAKNTVYLQMNSLKPEDTAVYYCAALVKGQGTVHRYYYLGQGTQVTVSS,high polyreactivity
18,QVQLVESGGGLVQAGGSLRLSCAASGFTFYRYTMGCYRQAPGKERELVAAISSGDSTYYADSVKGRFTISRDNAKNTVYLQMNSLKPEDTAVYYCAARQYSRGAIVYYWGQGTQVTVSS,high polyreactivity
19,QVQLVESGGGLVQAGGSLRLSCAASGIIFAYYAMGWYRQAPGKERELVGTNYADSVKGRFTISRDNAKNTVYLQMNSLKPEDTAVYYCAADFLYYSSGGKMDYWGQGTQVTVSS,low polyreactivity
20,QVQLVESGGGLVQAGGSLRLSCAASGSIFRPNDMGWYRQAPGKERELVAAISTGGSTSYADSVKGRFTISRDNAKNTVYLQMNSLKPEDTAVYYCAAVYYLTDWYGVWYSFDYWGQGTQVTVSS,low polyreactivity
